Measured values taken from PMC2064240 (The Journal of Cell Biology, 2006).

Target: T1, GST-SV343-571 (bovine, UniProt O46385-2 343-571)
T1 sequence (looked up): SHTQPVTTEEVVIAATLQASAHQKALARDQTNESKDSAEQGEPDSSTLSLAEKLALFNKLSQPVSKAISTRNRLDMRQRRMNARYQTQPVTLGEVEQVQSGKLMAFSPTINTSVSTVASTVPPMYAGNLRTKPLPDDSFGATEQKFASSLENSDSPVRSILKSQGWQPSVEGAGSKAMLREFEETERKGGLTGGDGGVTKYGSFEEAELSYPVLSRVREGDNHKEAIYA
Test: pull-down

B1: 6×His-tagged TRIP6 LIM domains (aa 265-476) (domain or fragment, human (HeLa cell cDNA library), UniProt Q15654-1 265-476, looked up)
chain: HDMNHPPSGEYFGQCGGCGEDVVGDGAGVVALDRVFHVGCFVCSTCRAQLRGQHFYAVERRAYCEGCYVATLEKCATCSQPILDRILRAMGKAYHPGCFTCVVCHRGLDGIPFTVDATSQIHCIEDFHRKFAPRCSVCGGAIMPEPGQEETVRIVALDRSFHIGCYKCEECGLLLSSEGECQGCYPLDGHILCKACSAWRIQELSATVTTDC
- binding result: binds
